Assay results: patent US20210284724A1 (I MAB BIOPHARMA US, published 2021)
Where a chain is given by its changes, count along the chain named.

T1: human CXCL13 (human, UniProt O43927 23-109)
T1 construct: also called huCXCL13; rhCXCL13
T1 sequence (looked up): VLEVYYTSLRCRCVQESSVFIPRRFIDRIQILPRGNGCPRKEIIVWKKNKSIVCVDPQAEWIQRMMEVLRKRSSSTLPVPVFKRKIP

T2: cynomolgus CXCL13 (cynomolgus, UniProt H6WS58 23-109)
T2 construct: also called cynoCXCL13; Cyno CXCL13
T2 sequence: T1 sequence (looked up) with S8H, L32S, I52V, M65I, V68M, R72K, L77P

T3: mouse CXCL13 (mouse, UniProt O55038 22-109)
T3 construct: also called rmCXCL13
T3 sequence (looked up): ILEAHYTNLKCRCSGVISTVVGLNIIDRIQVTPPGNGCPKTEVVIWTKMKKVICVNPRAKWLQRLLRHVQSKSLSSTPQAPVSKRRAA

B1: 537C8D7 (antibody, V domains shown)
VH: EVQLVESGGGLVLPGRSLKLSCAASGFTFSDYAMAWVRQAPKKGLEWVATVFYDGSDTFYRDSVKGRFTISRDNAKSTLYLQMDSLRSEDTATYYCAREGDYYSRHVYVGYNWFPHWGQGTLVTVSS
VL: DIRMTQSPASLSASLGETVNIECLTSEDINSELAWYQQKPGKFPQFLIYNANSLQDGVPSRFSGSGSGTQYSLKINSLQSEDVATYFCQQYNSYPLTFGSGTELEIK
notes: Hybridoma mAb
B2: 339A9E7 (antibody, V domains shown)
VH: DVQLQESGPGLVKPSQSLSLTCTVTGYSITSDYAWNWNRQFPGNKLEWMGYISYSGDTSYNPSLRSRISITRDTSKNQFFLQLNSVTAEDTAKYYCVAGHFDYWGQGTTLTVSS
VL: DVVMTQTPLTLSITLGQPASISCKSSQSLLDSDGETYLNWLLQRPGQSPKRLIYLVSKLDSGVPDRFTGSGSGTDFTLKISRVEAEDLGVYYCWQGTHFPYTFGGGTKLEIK
notes: Hybridoma mAb
B3: 19H7E10 (antibody, V domains shown)
VH: EVQLQQSGPELVKPGASVKISCQASGYAFSDYYMNWVKQSHGKRLEWIGDINPNNDGTTYNQKFKDKATLTVDKSSSTAYMDLRSLTSEDSAVYYCARLSWSFFAMDYWGQGTSVTVSS
VL: DIVMTQSHKFMSTSVGDRVSITCKASQDVSSGVAWYQQKPGQSPKVLIYSASHRHTGVPDRFTASGSGTDFTFTISSVQAEDLAVYYCQQYYNTPWTFGGGTKLEIK
notes: Hybridoma mAb
B4: 156H3H7 (antibody, V domains shown)
VH: EVQLQQSGPELVKPGASVKISCKASGYTFTDYYMNWVRQSHGKSLEWIGDINPNNGDTTYNQKFKGKATLTVDTSSSTVYMELRSLTSEDSAVYYCAGYDEDHYAMDYWGQGTSVTVSS
VL: B3 VL with I2Y, S31T, K39N, V46L, H55Y, A64G, N93T
notes: Hybridoma mAb
B5: 175E3B10 (antibody, V domains shown)
VH: QVTLKESGPGILQPSQTLSLTCSFSEFSLSVFGMGVGWIRQPSGKGLEWLAHIWWDDEKYYNPALKSRLTISKDTSKNQVFLKIANVDTADTATYFCARIDGYYDFDYWGQGTTLTVSS
VL: DVLMTQTPLSLPVSLGTQASIFCRSSHSIVQDNGNTYLQWYLQKPGQSPKLLIYKVSNRFSGVPDRFSGSGSGTDFTLKISRVEAEDLGVYYCFQGSYVPYTFGGGTKLEIK
notes: Hybridoma mAb
B6: 184H10B5 (antibody, V domains shown)
VH: B5 VH with F96Y
VL: B5 VL with F22S, K50Q
notes: Hybridoma mAb
B7: 411A11E9 (antibody, V domains shown)
VH: EVQLVESGGGLVQPGGSLKLSCVVSGFTFSDYYMAWVRQTPTKGLEWVASINYDGGDTYYRDSVKGRFTVSRNNAKSSLFLQMDSLRSEDTATYYCKTEEDYDGSYVMDAWGQGASVIVSS
VL: DIQMTQSPSFLSASVGDRVTISCKASQNINKELTWYQQKLGKAPKRLIYNTNILQTGIPSRFSGSGSNTDYTLTISSLQPEDFATYFCLQQSSLYTFGAGTKLELK
notes: Hybridoma mAb
B8: 64C10G1 (antibody, V domains shown)
VH: EVQLVESGGGLVKPGGSLKLSCAASGFTFSSYAMSWVRQTPEKRLEWVATISDGGSDAYYPDNVKGRFTISRDNAKNNLYLQMSHLKSEDTAMYYCARDYYGSGYEDSPMDYWGQGTSVTVSS
VL: DIQMTQSPSSLSASLGGKVTITCKASQDINKYIAWYQHKPGKGPRLLIHYTSTLQPGIPSRFSGSGSGRDYSFSISNLEPEDFATYYCLQYDNLYTFGGGTKLEIK
notes: Hybridoma mAb
B9: 177D2G10 (antibody, V domains shown)
VH: QIALKESGPGILQSSQTLSLTCSFSGFSLSTSGMHVGWFRQPSGKTLEWLAHIYWDDDKRYNPSLKSRLTISKDTSRNQVFLNLTNVDTADTATYYCARRGGDYDYDEGFDYWGQGTTLTVSS
VL: DVVMTQTPLSLPVSLGDQASISCRSSQSLVHSNGFTYLHWYLQKPGQSPKLLIYKVSNRFSGVPDRFSGSGSGTEFTLRISRVEAEDLGVYFCSQSTHVPYTFGGGTKLEIK
notes: Hybridoma mAb
B10: 168D6F2 (antibody, V domains shown)
VH: QVQLQQPGAELVKPGASVKLSCQASGYTFTSYWMHWVKQRPGRGLEWIGGIDPDSGATKDNEKFKTKATLTVDKPSRTAYIQLSSLTSEDSAVFYCARGSTVVAPGDYFAMDYWGQGTSVTVSS
VL: DIVLTPSPTSLAVSLGQRATMSCRASESVDNYGISFMHWYQQKPGQPPKLLIYRASNLDSGIPARFSASGSRTDFTLTINPVETDDVATYYCQQSNKDPWTFGGGTKLEIK
notes: Hybridoma mAb
B11: 415A3D1F4 (antibody, V domains shown)
VH: EVKLLESGGGLVQAGGSMRLSCGAFGFTVTDFYINWIRQPAGKAPEWLGFMRNKANGYTTEYNPSVKGRFTISRNNTQNMPYLQMNTLRTEDTAIYYCARSRYNADDYYVGVMDVWGQGASVTVSS
VL: DIQMTQFPASLSASLGETVSIECLASEDIYNNLAWYQQKPGKSPQLLIYYTNSLQDGVPSRFSGTGSGTQYSLKINSLESEDAATYFCLQDSEYPWTFGGGTKLKLK
notes: Hybridoma mAb
B12: 408E3F3 (antibody, V domains shown)
VH: HVTLRESGPGVLQPSKTLSLTCSFSGFSLSTSAMVVSWIRQSSGMSLEWLAAIDWEGDKYYNPSLESRLTVSRDISDTQVFLRITSVDVADTATYYCAVMSSADSHSVLDAWGQGVSVTVSS
VL: DIKMTQSPSFLSASVGDRVTINCKASQNIHNYLNWYQQKFGEAPRLLIYNTNNLQTGIPSRFSGSGSGTDFTLTISSLQPEDVATYFCLQHSSSLTFGSGTKLEIN
notes: Hybridoma mAb
B13: 119H10D6 (antibody, V domains shown)
VH: QVQLQQSGAELMKPGASVKISCKATGYTFNTYWIEWVKQRPGHGLEWIGEILPGSESTDYNEKFKDKATFTADISSNTAYMQLSSLTSEDSAVYYCARDYYGYYFDYWGQGTTLTVSS
VL: DIVMTQSHKFMSTSVGDRVSITCKASQDVSTAVVWYQQKPGQSPKLLIYSASYRYTGVPDRFSGSGSGTDFTFTISSVQAEDLAVYYCQQHYSSPRTFGGGTKLEIK
notes: Hybridoma mAb
B14: 130D6G1 (antibody, V domains shown)
VH: B13 VH with A24S, N30S, E56D, D59N, Y60S, K65E, D66G, I74T, Y103F
VL: B13 VL with S20N, V34A, A51T, S63T, S77N, S93T, S94T
notes: Hybridoma mAb
B15: 168A2D4 (antibody, V domains shown)
VH: EVQLQQSGPELVKPGASVKISCKASGNTLTDYYMNWVKQSHGKSLEWIGDINPNNGDIIYNQKFKGKATLTVAKSSSTAYMELRSLTSEDSAVYYCAIYYDPYYHAMDYWGQGTSVTVSS
VL: B13 VL with G16R, A32G, V34A, S63T, H91Q, S94V, R96L, G100A, I106L
notes: Hybridoma mAb
B16: 21H12D9 (antibody, V domains shown)
VH: EVQLQQSGPVLVRPGASVKMSCKASGYTFTDYYMNWVKQSHGKSLEWIGVINPNNGGTTYKEKFKGKATLTVDKSSGTAYMELNSLTSEDSAVYYCARDDYDAGYWGQGTTLTVSS
VL: DIVMTQFQKFMSTTVGDRVSITCKASQNVDTAVAWYQHKPGQSPKLLIYSASHRYTGVPDRFTGSGSGTDFTLTISNVQSEDLADYFCQQYTDFPLTFGAGTKLELK
notes: Hybridoma mAb

target: T1, human CXCL13; test: ELISA, coated antigen

| EC50 [µg/mL] | Binder |
| --- | --- |
| 0.0128 | B1 |
| 0.0216 | B2 |
| 0.0385 | B3 |
| 0.0134 | B4 |
| 0.0326 | B5 |
| 0.0272 | B6 |
| 0.0201 | B7 |
| 0.0314 | B8 |
| 0.0544 | B9 |
| 0.0218 | B10 |
| 0.0132 | B11 |
| 0.0237 | B12 |
| 0.0393 | B13 |
| 0.0192 | B14 |
| 0.134 | B15 |
| 0.0156 | B16 |

target: T2, cynomolgus CXCL13; test: ELISA, coated antigen

| binding result | EC50 [µg/mL] | Binder |
| --- | --- | --- |
| no binding |  | B1 |
|  | 0.0245 | B2 |
|  | 0.196 | B3 |
| no binding |  | B4 |
| no binding |  | B5 |
| no binding |  | B6 |
|  | 0.252 | B7 |
|  | 0.347 | B8 |
| no binding |  | B9 |
| no binding |  | B10 |
|  | 0.0711 | B11 |
|  | 0.0706 | B12 |
| no binding |  | B13 |
| no binding |  | B14 |
| no binding |  | B15 |
|  | 0.0619 | B16 |

target: T3, mouse CXCL13; test: ELISA, coated antigen

| EC50 [µg/mL] | binding result | Binder |
| --- | --- | --- |
| 0.0375 |  | B1 |
|  | no binding | B2 |
|  | no binding | B3 |
|  | no binding | B4 |
|  | no binding | B5 |
|  | no binding | B6 |
|  | no binding | B7 |
|  | no binding | B8 |
|  | no binding | B9 |
|  | no binding | B10 |
|  | no binding | B11 |
|  | no binding | B12 |
|  | no binding | B13 |
|  | no binding | B14 |
|  | no binding | B15 |
|  | no binding | B16 |

target: T1, human CXCL13; test: cell-based blocking ELISA, CXCL13 to CHO-K1-CXCR5
Description: Splenocytes were electro-fused with mouse myeloma cell line SP2/0 cells and plated into 96-well culture plate. The hybridoma supernatants were tested by ELISA binding assay for anti-human CXCL13 binders. Supernatants of positive binding clones were screened for function in blocking of human CXCL13 binding to its […] CXCR5 by Cell-based receptor blocking ELISA assay. Briefly, 5×10⁴ CHO-K1-CXCR5 cells were plated in 96-well plate with 100 μl of culture medium and incubated at 37° C. overnight. Cells were fixed with 100 μl of 2% PFA at RT for 1 hr after washing with PBS for 1 time. Blocking was done with 1% BSA in PBST for 1 hr at RT. Supernatants were diluted with PBS and pre-incubated with equal volume of 0.3 μg/ml human CXCL13 for 30 min at RT. 100 μl of antibody-antigen complex was then transferred into each cell wells for 30 min at RT. The samples were washed with 1×PBST for 3 times and 100 μl of 3 μg/ml of human Mab5261 antibody was add into each well to capture human CXCL13 and anti-human Fc-HRP was used to indirectly detect human CXCL13 when it bound to CHO-K1-CXCR5 cells. […] Reading was done at […].
Those antibodies were purified from hybridoma supernatants by binding with Protein G column and characterized by ELISA binding assays and cell-based blocking ELISA assays. […] 11/20 clones bound to both human CXCL13 and cynomolgus CXCL13 appeared to completely block human CXCL13 to human CXCR5. 11 blockers bound to both huCXCL13 and cynoCXCL13 were produced as chimeric human IgG1 antibodies for further Characterization.

| IC50 [µg/mL] | Binder |
| --- | --- |
| 2.46 | B1 |
| 13.3 | B2 |
| 2.22 | B3 |
| 4.59 | B4 |
| 1.42 | B5 |
| 4.85 | B6 |
| 0.793 | B7 |
| 0.33 | B8 |
| ~912 | B9 |
| 2.09 | B10 |
| 0.698 | B11 |
| 1.49 | B12 |
| 0.533 | B13 |
| 1.23 | B14 |
| 0.29 | B15 |
| 1.27 | B16 |
